Experimental data: patent publication US20090087478A1 (PROGENICS PHARMACEUTICALS NEVADA, published 2009)
Where two headings read alike, the source gives them in different places.

Tests used:
[1] = molecular target: T1, ToxA:2459-2710 (C-terminal eleven repeats of the toxin A CWB domain) (Clostridium difficile, UniProt P16154 2459-2710)
[2] = molecular target: T1, ToxA:2459-2710 (C-terminal eleven …); assay: SPR, apparent KD
[3] = molecular target: T2, ToxB:1807-2366 (CWB domain of C. difficile toxin B, expressed in E. coli) (Clostridium difficile, UniProt P18177 1807-2366); assay: SPR, toxin domain immobilised, apparent Kd
T2 construct: range 1807-2366

| Binder | Kd [1] [nM] | Kd [2] [nM] | Kd [3] [nM] |
| --- | --- | --- | --- |
| rPBA-3, chimeric recombinant form of anti-toxin A monoclonal antibody PBA-3 (wildtype, plasmids BD12584 heavy and BD12585 light) (antibody, V domains shown) VH: QVQLQQSGPELVKPGASVRISCKASGFTFTSYHVNWVKQRPGQGLEWIGWIYPGNVNTEYNEKFKGKATLTADKSSSTAYMQLSSLTSEDSAVYFCASHEYYGSDWYFDVWGAGTTVTVSS VL: DAVMTQTPLSLPVSLGDQASISCRSSQSLENRNGNTYLNWYLQKPGQSPQLLIYRVSNRFSGVLDRFSGSGSGTDFTLKISRVEAEDLGVYFCLQVTHVPYTFGGGTKLEIK | 60 |  |  |
| Antibody 3358 (or 543), murine monoclonal anti-toxin A antibody (antibody, V domains shown) VH: QVQLQQPGAELVKPGASVRLSCKAGGYTFTSYWLHWVKQRPGQGLEWIGMIHPNSGSYDYSETFRTKATLTVDKSSDTAYMQLTSLTSEDSAVYYCARGGSNYDIFAYWGQGTTLTVSS VL: NIVMTQSPKSMSMSVGERVTFNCRASENVGTYVFWYQQKPEQSPRLLIYGASNRYTGVPDRFTGSGSATDFTLTISGVQAEDLADYHCGQSYRHLTFGGGTKLEIK | 0.7 | < 30 |  |
| Antibody 227 (or 3359), murine monoclonal anti-toxin A antibody (antibody, V domains shown) VH: EVQLVESGGGLMKPGGSLKLSCAASGFAFGSYDMSWVRQTPEKRLEWVAYISSGGGITFYPDSVRGRFTISRDNAKNSLYMEMSSLRSEDTAMYYCARWDWDLFAYWGQGTLVTVSA VL: DIKMTQSPSSMYTSLGERVTITCKASQDINSCLSWFQQKPGKSPKALIFRANILVDGVPSRFSGSGSGQDYSLTISSLEYEDLGIYYCLQYDEFPWTFGGGTRLEIK | 12 |  |  |
| Antibody F87, murine monoclonal anti-toxin B antibody (antibody, V domains shown) VH: QVQLQQPGTELVKPGASVKLSCKASGYTFTNYWMHWVKQRPGQGLEWVGNINPSNGGTNYNEKFKSKATLTVDKSSSTAYMQLSSLTSEDSAFYYCARGRGPPYYSDYWGQGSTLTVSS VL: NIQMTQSPASLSASVGETVTITCRASGNIHNYLAWYQQKQGKSPQLLVYNAKTLADGVPSRFSGSGSGTQYSLKINSLQPEDFGSYYCQHFWSTPFTFGSGTKLEIK |  |  | 0.05 |
